Data reported in ChEMBL document CHEMBL2074236, “Renal organic cation and nucleoside transport” (Biochem Pharmacol, 2002).

Substrate: Nc1ncnc2c1ccn2[C@H]1C[C@H](O)[C@@H](CO)O1
Experiment: TP_TRANSPORTER: uptake (pH 5.4) in Xenopus laevis oocytes
Type: functional, cell-based, Oocyte

B1: Solute carrier family 22 member 2 (Rattus norvegicus) (protein)
chain: MSTVDDILEHIGEFHLFQKQTFFLLALLSGAFTPIYVGIVFLGFTPDHHCWSPGAAKLSQRCGWSQAEELNYTVPGLGPSDEASFLSQCMRYEVDWNQSTLDCVDPLSSLAADRNQLPLGPCEHGWVYNTPGSSIVTEFNLVCAHSWMLDLFQSVVNVGFFIGAMMIGYLADRFGRKFCLLVTILINAISGALMAISPNYAWMLVFRFLQGLVSKAGWLIGYILITEFVGLGYRRMVGICYQIAFTVGLLILAGVAYVIPNWRWLQFAVTLPNFCFLLYFWCIPESPRWLISQNKIVKAMKIIKHIAKKNGKSVPVSLQNLTPDEDAGKKLNPSFLDLVRTPQIRKHTLILMYNWFTSSVLYQGLIMHMGLAGDNIYLDFFYSALVEFPAAFIIILTIDRVGRRYPWAVSNMVAGAACLASVFIPDDLQWLKITIACLGRMGITMAYEMVCLVNAELYPTYIRNLGVLVCSSMCDIGGIITPFLVYRLTDIWMEFPLVVFAVVGLVAGALVLLLPETKGKALPETIEDAENMQRPRKKKEKRIYLQVKQADRPLS
Km: 212 µM

B2: Solute carrier family 22 member 1 (Rattus norvegicus) (protein)
chain: MPTVDDVLEQVGEFGWFQKQAFLLLCLISASLAPIYVGIVFLGFTPGHYCQNPGVAELSQRCGWSQAEELNYTVPGLGPSDEASFLSQCMRYEVDWNQSTLDCVDPLSSLVANRSQLPLGPCEHGWVYDTPGSSIVTEFNLVCGDAWKVDLFQSCVNLGFFLGSLVVGYIADRFGRKLCLLVTTLVTSVSGVLTAVAPDYTSMLLFRLLQGMVSKGSWVSGYTLITEFVGSGYRRTTAILYQMAFTVGLVGLAGVAYAIPDWRWLQLAVSLPTFLFLLYYWFVPESPRWLLSQKRTTRAVRIMEQIAQKNGKVPPADLKMLCLEEDASEKRSPSFADLFRTPNLRKHTVILMYLWFSCAVLYQGLIMHVGATGANLYLDFFYSSLVEFPAAFIILVTIDRIGRIYPIAASNLVTGAACLLMIFIPHELHWLNVTLACLGRMGATIVLQMVCLVNAELYPTFIRNLGMMVCSALCDLGGIFTPFMVFRLMEVWQALPLILFGVLGLTAGAMTLLLPETKGVALPETIEEAENLGRRKSKAKENTIYLQVQTGKSSST
Km: 23 µM
